The experiment addresses T1, cadherin6 (CDH6)-fc fusion protein (UniProt P55285 54-615, limits assumed).
T1 construct: Immobilised on a carboxymethyl dextran SPR chip; also called K-cadherin
T1 sequence (looked up): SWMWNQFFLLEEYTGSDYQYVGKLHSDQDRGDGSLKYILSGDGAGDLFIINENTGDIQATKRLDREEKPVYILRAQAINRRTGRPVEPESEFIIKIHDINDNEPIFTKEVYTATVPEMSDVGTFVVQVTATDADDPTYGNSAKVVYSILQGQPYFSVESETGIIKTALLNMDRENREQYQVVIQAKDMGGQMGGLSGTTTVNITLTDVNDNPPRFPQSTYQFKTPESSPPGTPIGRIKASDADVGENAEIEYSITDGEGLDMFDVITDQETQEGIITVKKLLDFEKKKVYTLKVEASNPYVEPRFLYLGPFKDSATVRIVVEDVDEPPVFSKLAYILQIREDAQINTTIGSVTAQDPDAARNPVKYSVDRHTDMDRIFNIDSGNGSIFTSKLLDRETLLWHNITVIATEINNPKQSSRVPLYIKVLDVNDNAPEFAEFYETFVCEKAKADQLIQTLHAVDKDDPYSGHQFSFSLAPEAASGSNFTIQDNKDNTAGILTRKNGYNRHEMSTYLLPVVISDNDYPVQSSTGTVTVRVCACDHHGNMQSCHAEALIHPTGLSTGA
As to the kind of experiment: SPR, CDH6-Fc immobilised on carboxymethyl dextran chip, peptide injected. The protocol: Comparison was made of the affinity of the peptides of the present invention for CDH6. The binding of GRS and GRS-derived peptides to cadherin6 (CDH6)-fc fusion protein was analyzed by surface plasmon resonance (SPR) using SR7500DC, Reichert Analytical Instrument (Depew NY). CDH6 was immobilized on a [CMDH chip] carboxymethyl dextran sensor chip via a free carboxyl group on the surface thereof, followed by injecting 0.1M 1-ethyl-3-(3-dimethylaminopropyl) carbodiimide hydrochloride and 0.05M N-hydroxysuccinimide at a flow speed of 5 μL/min to give an activated succinimide ester-modified surface. Various concentrations of GRS and GRS-derived peptides were injected at a flow speed of 30 μL/min into phosphate-based saline, after which a mobile-phase buffer was injected at the same flow speed to determine a dissociation rate. Data was analyzed using Software Scrubber 2.0 (Biological Software, Australia).

As usually defined, the Kd is the concentration at which binding is half-saturated. Lower therefore signals tighter binding.

B1: GRS-DP polypeptide (GRS 531-600 aa) (peptide)
peptide: MYTVFEHTFHVREGDEQRTFFSFPAVVAPFKCSVLPLSQNQEFMPFVKELSEALTRHGVSHKVDDSSGSI
notes: Linear truncated GRS fragment; also called GRS-DP peptide
Turning to B1, the Kd came to 83.9 nM.

B2: GRS-DP-A linear (GRS 531-555 aa) (peptide)
peptide: MYTVFEHTFHVREGDEQRTFFSFPA
notes: Linear 25-mer, 3.079 kDa
On to B2, for which the affinity, expressed as Kd, was 61.2 nM.

B3: GRS-DP-A cyclic (peptide)
peptide: CYTVFEHTFHVREGDEQRTFFSFPC
modifications: cyclic form: "monosulfide linkage" formed between the cysteine residues at the opposite termini (Cys 1 and Cys 25)
notes: Cyclised by spontaneous reaction at pH 8; 3.083 kDa; also called GRS-DP-A cyclic variant
B3 yielded a dissociation constant Kd of 51.3 nM.

These data come from patent publication US20210198650A1 (NIBEC, published 2021).
